Results taken from the DeepSol protein solubility set.

Assay: soluble on expression in E. coli; label from the status in PepcDB or PDB records

Sequence	soluble on expression in E. coli
MNTREVELRGHIIDSLILPRALDIIMDMGGDFQILEIDIGKRKSDPSHARILVEAETPSLLNQILDELGEIGASIAEIKEAELRRAPMDRVLPDDFYSTTNHQTFIYHGGEWVEVEGIEMDCMIVVDPESRTARCKPIREIKKGDLVVVGREGIKVVPPERPRGKQGVFEFMGSEVSSEKPLVTTIKKIASEITEIKKRGGRIGLVGGPAIVHTGSAPVIAEMIRLGFIDVLFAGNALATHDIECALYGTSLGVDIDRGEAVSRGHRHHINAINEINRAGSIRDAVEQGVLTSGIMYECVKNDVPFVLAGSIRDDGPLPDVITDVMEAQNEMRKYVQDLDMVIMIATMLHSIATGNILPSRVKTICVDINPATVTKLSDRGSSQAVSVVTDVGAFIPILLHEIKKMNGLGDLEHHHHHH	soluble
MQVSLPREDTVYIGGALWGPATTWNLYAPQSTWGTDQFMYLPAFQYDLGRDAWIPVIAERYEFVDDKTLRIYIRPEARWSDGVPITADDFVYALELTKELGIGPGGGWDTYIEYVKAVDTKVVEFKAKEENLNYFQFLSYSLGAQPMPKHVYERIRAQMNIKDWINDKPEEQVVSGPYKLYYYDPNIVVYQRVDDWWGKDIFGLPRPKYLAHVIYKDNPSASLAFERGDIDWNGLFIPSVWELWEKKGLPVGTWYKKEPYFIPDGVGFVYVNNTKPGLSDPAVRKAIAYAIPYNEMLKKAYFGYGSQAHPSMVIDLFEPYKQYIDYELAKKTFGTEDGRIPFDLDMANKILDEAGYKKGPDGVRVGPDGTKLGPYTISVPYGWTDWMMMCEMIAKNLRSIGIDVKTEFPDFSVWADRMTKGTFDLIISWSVGPSFDHPFNIYRFVLDKRLSKPVGEVTWAGDWERYDNDEVVELLDKAVSTLDPEVRKQAYFRIQQIIYRDMPSIPAFYTAHWYEYSTKYWINWPSEDNPAWFRPSPWHADAWPTLFIISKKSDPQPVPSWLGTVDEGGIEIPTAKIFEDLQKATMHHHHHH	soluble
GSMKTIKVKNKTEGSKVAFRMLEEEITFGAKTLGLATGSTPLELYKEIRESHLDFSDMVSINLDEYVGLSADDKQSYAYFMKQNLFAAKPFKKSYLPNGLAADLAKETEYYDQILAQYPIDLQILGIGRNAHIGFNEPGTAFSSQTHLVDLTPSTIAANSRFFEKAEDVPKQAISMGLASIMSAKMILLMAFGEEKAEAVAAMVKGPVTEEIPASILQTHPKVILIVDEKAGAGI	soluble
MGHHHHHHSHIGSFPLPKGITREWVERNLHTKEYEEMVQRAFLMKAKVLDVPTYPQFRDMIEMFMQPIKANQVEPYLIDERKAVIPELEYVEKMSVEAVRVCITGPFELYYREFGGVIYEDILLNLAESVRRFVENAAKHENVVCISIDEPSLGIAPDLQPDEELLQKALDYKVKQDVQIHLHEPLYYEKILETSVDVIGIECAKKPENMDFIDAEAVASAEKKLRIGVARSDIDGIIAEFNALHGVNAWGNEELISLAIDEIEPVEKIAERISKAKERFGDLLAYIGPDCGLFSFPSQELALQLLENVRKAVRE	not soluble
MGSDKIHHHHHHMSHKPSAEDKEKSKLTKEEWRDYTKTVWSIANTSHEDHPAVFPLEIPHRLTKLFSFYGETVLDPFAGTGTTARAAIPLGRRAICVDQNADYTEIIKKDCAKLRNGHGADFEPLVVVNGDSRKMDFVESDSVGLVVTSPPYWNKADYGDSKRNLGTIERYSDFIEGIRPVFEECYRILTPGRKLCVVTANVNQHTDHGLLTFPLATDFAVLLRQIGFVMINEIIWSKDATGGKWGSYGAQRPIFGSYPYPPNFLFKNVHEYILIFAKPPRTKTTGPKVQPYKKLVEGLTGGIMEPDSLPAYAQAFRQQ	not soluble
MIDDRQEEKMIKENVYFDGNVKSLGFSQQDGESTVGVMAPGQYTFGTGAPERMTVVKGALTIKRVTDADWVTFTAGEAFEVAGNSSFDLQVEVATAYLCEFLPA	not soluble
METFYTIGRSPRADIRIKSQFVSRIHAVLVRKSSDDVQAAYRIIDGDEDGQSSVNGLMINGKKVQEHIIQTGDEIVMGLEHHHHHH	not soluble
